{"source": "patent US10444224B2", "about": "“Method for RNA detection and quantification” (Cornell University, priority 2011, dated 2019)", "key": {"[1]": {"tested_on": "endogenous SAM levels in living E. coli cells", "experiment": "Live cell imaging of SAM accumulation with the SAM sensor", "format": "cell-based", "settings": "50 μg/ml methionine plus inhibitor (25 μM adenosine periodate or 2.5 μM MT-DADMe-ImmA)", "procedure": "Expression of the SAM aptamer and intracellular imaging was performed as described above for the ADP sensor: BL21-A Star E. coli cells (Invitrogen) were transformed with 40 ng of plasmid DNA expressing the tRNA-sensor chimeras in pET28c under the control of a T7 promoter. Cells were plated, grown overnight and single colonies were picked for inoculation in LB-Kan. At OD600=0.4, 1 mM of IPTG was added to the culture and shaking was continued at 37° C. for more 2 hours. 100 μL of culture was then removed, spun down to pellet the culture, and resuspended in 2 mL of pH 6.0 M9 minimal media. A 200 μl aliquot of resuspended culture was then plated on PLL-coated 24-well glass-bottom dishes (MatTek) and incubated for 45 minutes at 37° C. Adherent cells were washed twice and then incubated with 200 μM DFHBI in pH 6.0 M9 minimal media for 2 hours at 37° C. Cells were then treated with methionine alone or methionine with inhibitors by adding 2 μl of a 100× stock of the compound to a final concentration of 50 μg/ml for L-methionine, 25 μM for adenosine periodate, and 2.5 μM for MT-DADMe-ImmA. Live fluorescence images were taken with a CoolSnap HQ2 CCD camera through a 60× oil objective mounted on a Nikon TE2000 microscope and analyzed with the NIS-Elements software. The filter set used was a sputter coated filter cube with excitation filter 470/40, dichroic mirror 495 (long pass) and emission filter 525/50 (Chroma Technology).\nCells transformed with SAM sensors were grown overnight in LB-Kan. Cultures were then diluted to OD600=0.1 in 200 mL LB-Kan and grown to OD600=0.4. Cells were then induced for 2 hours with 1 mM IPTG at 37° C. with constant shaking. The entire culture was centrifuged for 5 min at 1,000×g, pellets were resuspended and washed once with M9 media and then resuspended in […] of M9 media containing 200 μM DFHBI and divided into two samples. Methionine (50 μg/ml) or vehicle was then added to either sample and cultures were incubated between 32-37° C. 25 ml aliquots were removed from methionine- and vehicle-treated sample at each time point, centrifuged for 5 min at 1,000×g, and flash frozen in liquid nitrogen. Cells were thawed on ice and lysed by resuspending the pellet in 300 μl of cold 4% perchloric acid. Insoluble material was then pelleted by spinning at 1,000×g for 5 min and the supernatant was transferred to a dialysis spin column with a 10,000 molecular weight cut off (Amicon) and spun at 10,000×g for 10 min at 4° C. A portion of the flow through (50 μl) was then injected on a Zorbax C8 column (Agilent) on an Agilent 1100 HPLC. Samples were loaded and eluted for 15 min with an aqueous buffer containing 3.6% acetonitrile, 40 mM ammonium phosphate, and 5 mM sodium 1-heptanesulfonate which was brought to pH 5.0 with hydrochloric acid. After each sample was eluted, the column was washed with a gradient of 3.6-25% acetonitrile for 30 min prior to the next samples being injected. SAM standards were used to calibrate SAM levels measured using this assay.\nPopulation analysis was carried out using NIS-Elements software. Individual cells in a captured field were manually traced as Region of Interests (ROIs) and tracked through the different time points of image capture. Fluorescence intensity was then calculated by dividing the total fluorescence by the area for each ROI, which gives the mean intensity per unit area. Fold increase in fluorescence over time is calculated as the ratio of mean intensity at a desired time point and at time zero. Values in fold increase in fluorescence over time are plotted as frequency distributions or further used in statistical analyses."}, "[2]": {"experiment": "Relative fluorescence of Spinach derivatives compared to Spinach", "format": "biochemical", "settings": "same concentration of DFHBI in all samples", "description": "Further modifications to Spinach were made in the same manner as described in Example 3, supra. These included modifications to the central loop, the stem formed between 5′ and 3′ ends, as well as stem-loops 1, 2, and 3. FIG. 17 illustrates the RNA sequences and secondary structures of Spinach (SEQ ID NO: 10), and five derivatives thereof, which are designated Spinach-2 (SEQ ID NO: 12), Spinach-4 (SEQ ID NO: 13), Spinach-6 (SEQ ID NO: 14), Spinach-7 (SEQ ID NO: 15), and Spinach-13 (SEQ ID NO: 11). RNA structure is shown as predicted by Mfold web-based software (Zuker, “Mfold Web Server for Nucleic Acid Folding and Hybridization Prediction,” Nucl. Acids Res. 31(13): 3406-3415 (2003), which is hereby incorporated by reference in its entirety). Substitutions present in the derivatives, relative to Spinach, are shown with a box formed around the base.\nFIG. 18 is a graph illustrating the relative fluorescence of the Spinach derivatives compared to Spinach. In all samples shown, the same concentration of DFHBI, the Spinach-binding fluorophore, was included. […] In contrast, modifications to the 5′ and 3′ stem formation, the central loop, and stem-loop 2 were either tolerated or led to much improved fluorescence."}, "[3]": {"experiment": "Emission and excitation of aptamer-DFHO complexes", "format": "physicochemical", "settings": "aptamer with DFHO"}, "[4]": {"experiment": "Emission and excitation of aptamer-MFHO complexes", "format": "physicochemical", "settings": "aptamer with MFHO"}, "[5]": {"experiment": "Emission and excitation of aptamer-DFAME complexes", "format": "physicochemical", "settings": "aptamer with DFAME"}, "[6]": {"experiment": "Spinach-based RNA sensor fluorescence in response to GTP", "format": "biochemical", "quoted_text": "Dose-response curves for each sensor in response to the target metabolite were determined by measuring the increase in fluorescence as a function of increasing target concentration in the presence of a fixed concentration of RNA sensor (10-50 nM) and a fixed concentration of fluorophore (10 μM). Curves were determined using a nonlinear regression analysis in Prism software and matched by least squares fitting to a standard dose-response model for 1:1 complexation.\nThe optimal sensors were chosen based on their low fluorescence in the absence of metabolite and the relative increase in fluorescence upon binding to the metabolite."}, "[7]": {"settings": "0.1 μM RNA, 10 μM DFHBI, 1 mM competing molecule"}}, "note": "“Also recorded” adds a separate entry of the source."}
{"molecule": "CSC[C@H]1CN(Cc2c[nH]c3c(N)ncnc23)C[C@@H]1O", "note": "[MT-DADMe-ImmA, MT-DADMe-Immucillin-A]", "values": [{"measurement": "effect on average SAM levels / accumulation versus vehicle", "setting": "[1]", "value": "large decrease in the average accumulation of SAM"}, {"measurement": "effect on inter-cell variability in SAM levels versus vehicle", "setting": "[1]", "value": "retained considerable variability in total SAM levels"}, {"measurement": "effect on average SAM levels / accumulation versus vehicle", "setting": "[1]; listed as Mt-DADMe-ImmA", "value": "substantial reduction in average SAM accumulation levels; also recorded: much greater reduction in average SAM accumulation levels"}, {"measurement": "effect on inter-cell variability in SAM levels versus vehicle", "setting": "[1]; listed as Mt-DADMe-ImmA", "value": "higher variability in SAM levels; also recorded: increased the variability in SAM levels"}]}
{"molecule": "Spinach-4: derivative of Spinach (nucleic acid, listed as RNA, chemistry not given here) GACGCGACCGAAUGAAAUGGUGAAGGACGGGUCCAGCUGCGGCUGCUUCGGCAGCCGCAGCUUGUUGAGUAGAGUGUGAGCUCCGUAACUGGUCGCGUC", "values": [{"measurement": "relative fluorescence compared to Spinach", "setting": "[2]", "value": "enhanced fluorescence"}]}
{"molecule": "SEQ ID NO: 51: RNA aptamer listed for fluorophore DFHO (nucleic acid, listed as RNA, chemistry not given here) GGGAGACGCAACUGAAUGAAGUUGGCCCAUGAUAGAAAGCAGGGUGCUGCUUCGGCAGUUGUCGGAGGGUGGGGGGAUUGACUAUCCGUAACUAGUCGCGUCAC", "values": [{"measurement": "Em", "setting": "[3]", "value": "Em = 550 nm"}, {"measurement": "Ex", "setting": "[3]", "value": "Ex = 480 nm"}]}
{"molecule": "Spinach-6: derivative of Spinach (nucleic acid, listed as RNA, chemistry not given here) GACGCGACCGAAUGAAAUGGUGAAGGACGGGUCCAGGUGUGGCUGCUUCGGCAGUGCAGCUUGUUGCGUCGAGUGUGAGCUCGACGUAACUGGUCGCGUC", "values": [{"measurement": "relative fluorescence compared to Spinach", "setting": "[2]", "value": "greatly reduced fluorescence"}]}
{"molecule": "Spinach-7: derivative of Spinach (nucleic acid, listed as RNA, chemistry not given here) GACGCGACCGAAUGAAAUGGUGAAGGACGGGUCCAGCCGGCUGCUUCGGCAGCCGGCUUGUUGAGUAGAGUGUGAGCUCCGUAACUGGUCGCGUC", "values": [{"measurement": "relative fluorescence compared to Spinach", "setting": "[2]", "value": "enhanced fluorescence"}]}
{"molecule": "Spinach-2: derivative of Spinach (nucleic acid, listed as RNA, chemistry not given here) GACGCGACCGAAUGAAAUGGUGAAGGACGGGUCCAGGUGUGGCUGCUUCGGCAGUGCAGCUUGUUGAGUAGAGUGUGAGCUCCGUAACUGGUCGCGUC", "values": [{"measurement": "relative fluorescence compared to Spinach", "setting": "[2]", "value": "comparable fluorescence"}]}
{"molecule": "SEQ ID NO: 54: RNA aptamer listed for fluorophore DFHO (nucleic acid, listed as RNA, chemistry not given here) GGGAGACGCAACUGAAUGAAGCGAGGAAGGAGGUCUGAGGAGGUCACUGCUUCGACAGUGGGGCGUUUUCCCUGGGGGUGUUGAUCCGUAACUAGUCGCGUCAC", "values": [{"measurement": "Em", "setting": "[3]", "value": "Em = 545 nm"}, {"measurement": "Ex", "setting": "[3]", "value": "Ex = 500 nm"}]}
{"molecule": "SEQ ID NO: 55: RNA aptamer listed for fluorophore MFHO (nucleic acid, listed as RNA, chemistry not given here) GGGAGACGCAACUGAAUGAAGCGAGGAAGGAGGUCUGAGGAGGUCACUGCUUCGACAGUGGGGCGUUUUCCCUGGGGGUGUUGAUCCGUAACUAGUCGCGUCAC", "values": [{"measurement": "Em", "setting": "[4]", "value": "Em = 430 nm"}, {"measurement": "Ex", "setting": "[4]", "value": "Ex = 580 nm"}]}
{"molecule": "SEQ ID NO: 53: RNA aptamer listed for fluorophore DFHO (nucleic acid, listed as RNA, chemistry not given here) GGGAGACGCAACUGAAUGAAAGACCUGACGAGGGUGAAGCGGUUGUCUGCUUCGGCAGCAUUGAAAGGGUGGGGUGUAGGAUGGUCCGUAACUAGUCGCGUCAC", "values": [{"measurement": "Em", "setting": "[3]", "value": "Em = 560 nm"}, {"measurement": "Ex", "setting": "[3]", "value": "Ex = 520 nm"}]}
{"molecule": "SEQ ID NO: 57: RNA aptamer listed for fluorophore DFAME (nucleic acid, listed as RNA, further chemistry not given here) GGGAGACGCAACUGAAUGAAAGACCUGACGAGGGUGAAGCGGUUGUCUGCUUCGGCAGCAUUGAAAGGGUGGGGUGUAGGAUGGUCCGUAACUAGUCGCGUCAC", "values": [{"measurement": "Em", "setting": "[5]", "value": "Em = 570 nm"}, {"measurement": "Ex", "setting": "[5]", "value": "Ex = 620 nm"}]}
{"molecule": "Spinach-13: derivative of Spinach (nucleic acid, listed as RNA, chemistry not given here) GACGCGACCUAUGAAAUGGUGAAGGGACGGGUCCCAGCGGCUGCUUCGGCAGCCGCUGUUGAGUAGAGUGUGAGCUCCGUAACUGGUCGCGUC", "values": [{"measurement": "relative fluorescence compared to Spinach", "setting": "[2]", "value": "greatly reduced fluorescence"}]}
{"molecule": "GTP sensor: Spinach-based turn-on RNA sensor for GTP (nucleic acid, listed as RNA, chemistry not given here) GACGCGACUGAAUGAAAUGGUGAAGGACGGGUCCAGCAGAAGAGCACGUAUACGCAAGCUUGUUGAGUAGAGUGUGAGCUCCGUAACUAGUCGCGUC", "values": [{"measurement": "increase in fluorescence in the presence of GTP", "setting": "[6]; 0.1 μM RNA, 10 μM DFHBI, 1 mM GTP, versus no GTP", "value": 15, "unit": "fold"}, {"measurement": "molecular discrimination: ATP", "setting": "[6]; [7]", "value": "Only baseline fluorescence"}, {"measurement": "molecular discrimination: GMP", "setting": "[6]; [7]", "value": "exhibits fluorescence, although to a lesser extent; also recorded: moderate preference for GTP over GMP"}, {"measurement": "molecular discrimination: cGMP and guanosine", "setting": "[6]; [7]", "value": "minimal fluorescence; also recorded: tenfold less fluorescence"}, {"measurement": "EC50", "setting": "[6]; predicted by curve fitting, read-out: half-maximal fluorescence (EC50), GTP", "value": 7.7, "unit": "mM"}]}
{"molecule": "SEQ ID NO: 52: RNA aptamer listed for fluorophore DFHO (nucleic acid, listed as RNA, chemistry not given here) GGGCGACUCACUAUAGGGAGACGCAACUGAAUGAAGCGAAGAAGGAGGUCUGAGGAGGUCACUGCUUCGGCAGUGGGGCGUUUUCCCUGGGGGUGUUGAUCCGUAACUAGUCGCGUCAC", "values": [{"measurement": "Em", "setting": "[3]", "value": "Em = 540 nm"}, {"measurement": "Ex", "setting": "[3]", "value": "Ex = 490 nm"}]}
{"molecule": "SEQ ID NO: 56: RNA aptamer listed for fluorophore MFHO (nucleic acid, listed as RNA, chemistry not given here) GGGAGACGCAACUGAAUGAAUGAGUAUGAUGCACGGUUAAAAUCCACUGCUUCGGCAGGAGUUGCGUUAGGAGGGUCGGGAGUCUCCGUAACUAGUCGCGUCAC", "values": [{"measurement": "Em", "setting": "[4]", "value": "Em = 570 nm"}, {"measurement": "Ex", "setting": "[4]", "value": "Ex = 550 nm"}]}
{"molecule": "SEQ ID NO: 58: RNA aptamer listed for fluorophore DFAME (nucleic acid, listed as RNA, further chemistry not given here) GGGAGACGCAACUGAAUGAAGCCUCCGUGCGACAUCAUGCGCGCGACUGCUUCGGCAGAGGUGGGUGGUGUGGAGGAGUAUCUGUCCGUAACUAGUCGCGUCAC", "values": [{"measurement": "Em", "setting": "[5]", "value": "Em = 610 nm"}, {"measurement": "Ex", "setting": "[5]", "value": "Ex = 510 nm"}]}
